According to the supplement of paper PMC11780869:

Test system: Bacillus subtilis
Assay: cleaved RNA product abundance (RNA/gDNA barcode ratio) relative to median wild-type variant (ratio to wild type); higher = more accumulation of the downstream cleavage product
Method in brief: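 Truncated aprE or tetM reporter mRNAs with barcoded RNase Y cleavage-site windows, mutagenized from oligos at a 9% error rate, sat in the B. subtilis chromosome. Cells grew in LB at 37°C from OD600 0.0003 to 0.3. Gel-selected cleaved RNA was reverse transcribed and its barcodes sequenced with those from genomic DNA, collapsing by UMI. Cleaved product abundance equals the RNA:gDNA barcode ratio per construct over the median construct with the unmutated site.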

[1] = experiment (reporter, strain, medium): exp 4a: truncated aprE reporter, strain BJT201 with 2% xylose (RNase J1 expressed), cleavage site: cggR-gapA (positions -7 to +36 mutated)
[2] = experiment (reporter, strain, medium): exp 2b: truncated aprE reporter, strain BJT200, cleavage site: cggR-gapA (positions -7 to +36 mutated)
[3] = experiment (reporter, strain, medium): exp 8a: truncated aprE reporter, strain BJT201 with 2% xylose (RNase J1 expressed), cleavage site: glnRA (positions -5 to +31 mutated)

Row | Sequence | cleaved RNA product abundance [1] | cleaved RNA product abundance [2] | cleaved RNA product abundance [3] | also measured
1 | ACAGACGAAGGAGCCGCAAAGTAGTTATTAAGGAATGAATAATCCCTCAATATAAATATCTCTCACTTATTTAAA | 0.148 |  |  | 
2 | ACAGACGAAGGAGCCGCAATGAAGTCATTAAGGGATGAATAATCCCTCAATATAAATATCTCTCACTTATTTAAA |  | 0.189 |  | 
3 | ACAGACGAAGGAGCCGCAAAGAAGTTATTAAGGCATGAATAATCCCTCATTATAAATATCTCTCACTTATTTAAA | 0.0852 | 0.0915 |  | 
4 | ACAGACGAAGGAGCCGCAAAGTAGTTATTAAGAGATGAATAATCCCTCAATATAAATATCTCTCACTTATTTAAA | 0.124 | 0.126 |  | 
5 | ACAGACGAAGGAGCCGCAAAGAAGTTATTATGGGATGAATAATCCCTCAATATATATATCTCTCACTTATTTAAA | 0.503 |  |  | 
6 | CGACATGTCCCGCTTCTTTCATTAATCCGTTATCAACTGTTTTGCTATATACATTGACCTTTTAAGAGGAGGAAT |  |  | 0.253 | 
7 | CGACATGTCCCGCTTCTTTCATTAAACCGTTTGCAACTGTTTTGCTATATACATTTACCTTTTAAGAGGAGGAAT |  |  | 0.331 | 
8 | CGACATGTCCCGCTTCTTTCATTAACCCGTTAGCAAGTGTTTTGCTATATACATTTACCTTTTAAGAGGAGGAAT |  |  | 0.522 | 
9 | ACAGACGAAGGAGCCGCAAAGAACTTATTTAGGGATGAATAATCCCTCAATATAAATATCTCTCACTTATTTAAA | 0.321 | 0.442 |  | 
10 | ACAGACGAAGGAGCCGCAAAGATGTTATTAAGGGATGAATAATCCCTCAATATATATATCTCTCACTTATTTAAA | 0.975 |  |  | 
11 | ACAGACGAAGGAGCCGCAAAGAAGTTATTAAGGGATGAAAAATCCCTCAATATAAATATCTCTCACTTATTTAAA | 0.781 | 0.78 |  | cleaved RNA product abundance (experiment (reporter, strain, medium): exp 6: tetM reporter, strain 168, cleavage site: cggR-gapA (positions -7 to +36 mutated)): 0.985
12 | ACAGACGAAGGAGCCGCAAAGAAGTTATTAAGGGATGAATATTCCCTCATTATAAATATCTCTCACTTATTTAAA | 0.316 |  |  | 
13 | ACAGACGAAGGAGCCGCAAAGAAGTTATTAAGGGATAAATAATTCCTCAATATAAATATCTCTCACTTATTTAAA | 0.294 |  |  | 
14 | CGACATGTCCCGCTTCTTTCATTAATCCGTTAGCAACTGTTTTGCTACATACACTTACCTTTTAAGAGGAGGAAT |  |  | 0.213 | 
15 | ACAGACGAAGGAGCCGCAAAGAAGTTATTAAGGGATGGATAATCCATCAATATAAATATCTCTCACTTATTTAAA | 0.189 |  |  | 
16 | ACAGACGAAGGAGCCGCAAAGAACTTATTAAGGGATGAATAATCCCTCAGTATAAATATCTCTCACTTATTTAAA | 0.309 | 0.128 |  | 
17 | CGACATGTCCCGCTTCTTTCATTATTCCGTTATCAACTGTTTTGCTATATACATTTACCTTTTAAGAGGAGGAAT |  |  | 0.265 | 
18 | ACAGACGAAGGAGCCGCAAAGAAGTTCTTAAGGGATGAATAATCTCTCAATATAAATATCTCTCACTTATTTAAA | 0.199 |  |  | 
19 | ACAGACGAAGGAGCCGCAAAGAAGTTATTAAGGGATTAATAATCCCTCGATATAAATATCTCTCACTTATTTAAA | 0.594 |  |  | 
20 | CGACATGTCCCGCTTCTTTCATTAATCCATTACCAACTGTTTTGCTATATACATTTACCTTTTAAGAGGAGGAAT |  |  | 0.17 | 
21 | CGACATGTCCCGCTTCTTTCATTAATCCGTTAGCAACTGTTTAGCTATATACATTTATCTTTTAAGAGGAGGAAT |  |  | 0.572 | 
22 | CGACATGTCCCGCTTCTTTCATTAATCCGATAGCAACTGTTTTACTATATACATTTACCTTTTAAGAGGAGGAAT |  |  | 0.459 | 
23 | ACAGACGAAGGAGCCGCAAAGAAGTTATTAAGGGATGAATAATCCCTCAATATATATAACTCTCACTTATTTAAA | 0.429 | 0.679 |  | 
24 | CGACATGTCCCGCTTCTTTCATTAATCCGTTAGCACCTGTTTTGCTATATACATTTACCTTTTAAGAGGAGGAAT |  |  | 0.748 | 
25 | CGACATGTCCCGCTTCTTTCATTATTCCGTTAGCAACTGTTTTGCTATATACATTTCCCTTTTAAGAGGAGGAAT |  |  | 1.01 | 
26 | ACAGACGAAGGAGCCGCAAAGAAGTTATTAACGGATGAATAAACCCTCAATATAAATATCTCTCACTTATTTAAA | 0.12 | 0.0962 |  | 
